± gives the standard deviation of the averaged measurements.
Columns and labels:
[1] = test system: MCF7; experiment: percentage of EdU-negative (G0-arrested) nuclei per well, 72 h; higher = more G0 arrest; conditions: reference: sequence is the full UniProt precursor, the tested protein was the secreted form or ectodomain
[2] = test system: hTERT-HMEC; experiment: as above; conditions: reference: sequence is the full UniProt precursor, the tested protein was the secreted form or ectodomain
[3] = protein concentration 0.0082175 µM
[4] = protein concentration 0.01138 µM
[5] = protein concentration 0.082175 µM
[6] = protein concentration 0.1138 µM
[7] = protein concentration 0.0357143 µM
[8] = protein concentration 0.357143 µM
[9] = protein concentration 0.0328571 µM
[10] = protein concentration 0.328571 µM
[11] = protein concentration 0.01725 µM
[12] = protein concentration 0.1725 µM
[13] = protein concentration 0.03125 µM
[14] = protein concentration 0.3125 µM
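Further: secreted proteins added to cultured cells, EdU pulse at the end, nuclei found by Hoechst imaging, EdU status from nuclear versus surrounding ring intensity ratio, PBS as neutral control.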

In the case of “MRVLGGRCGALLACLLLVLPVSEANFLSKQQASQVLVRKRRANSLLEETKQGNLERECIEELCNKEEAREVFENDPETDYFYPKYLVCLRSFQTGLFTAARQSTNAYPDLRSCVNAIPDQCSPLPCNEDGYMSCKDGKASFTCTCKPGWQGEKCEFDINECKDPSNINGGCSQICDNTPGSYHCSCKNGFVMLSNKKDCKDVDECSLKPSICGTAVCKNIPGDFECECPEGYRYNLKSKSCEDIDECSENMCAQLCVNYPGGYTCYCDGKKGFKLAQDQKSCEVVSVCLPLNLDTKYELLYLAEQFAGVVLYLKFRLPEISRFSAEFDFRTYDSEGVILYAESIDHSAWLLIALRGGKIEVQLKNEHTSKITTGGDVINNGLWNMVSVEELEHSISIKIAKEAVMDINKPGPLFKPENGLLETKVYFAGFPRKVESELIKPINPRLDGCIRSWNLMKQGASGIKEIIQEKQNKHCLVTVEKGSYYPGSGIAQFHIDYNNVSSAEGWHVNVTLNIRPSTGTGVMLALVSGNNTVPFAVSLVDSTSEKSQDILLSVENTVIYRIQALSLCSDQQSHLEFRVNRNNLELSTPLKIETISHEDLQRQLAVLDKAMKAKVATYLGGLPDVPFSATPVNAFYNGCMEVNINGVQLDLDEAISKHNDIRAHSCPSVWKKTKNS”, the “percentage of EdU-negative” value [1, 3] is reported as 25.6 ± 0.65%, the “percentage of EdU-negative” value [1, 4] is reported as 28.4 ± 1.6% and the “percentage of EdU-negative” value [1, 5] is reported as 27.3 ± 4.3%. For the same sequence, the “percentage of EdU-negative” value [1, 6] was 28.2 ± 3.1%, the “percentage of EdU-negative” value [2, 3] was 4.46 ± 0.51% and the “percentage of EdU-negative” value [2, 4] was 4.81 ± 0.94%. For the same sequence, the “percentage of EdU-negative” value [2, 5] was 7.16 ± 1.3% and the “percentage of EdU-negative” value [2, 6] was 5.79 ± 0.86%.
“MKLQCVSLWLLGTILILCSVDNHGLRRCLISTDMHHIEESFQEIKRAIQAKDTFPNVTILSTLETLQIIKPLDVCCVTKNLLAFYVDRVFKDHQEPNPKILRKISSIANSFLYMQKTLRQCQEQRQCHCRQEATNATRVIHDNYDQLEVHAAAIKSLGELDVFLAWINKNHEVMFSA [Q9UHD0]” was tested, and the “percentage of EdU-negative” value [1, 7] was 24.3 ± 3%, the “percentage of EdU-negative” value [1, 8] was 27.41 ± 0.059% and the “percentage of EdU-negative” value [2, 7] was 5.09 ± 0.068%. For the same sequence, the “percentage of EdU-negative” value [2, 8] was 6.97 ± 1.1%.
“MSMLVVFLLLWGVTWGPVTEAAIFYETQPSLWAESESLLKPLANVTLTCQAHLETPDFQLFKNGVAQEPVHLDSPAIKHQFLLTGDTQGRYRCRSGLSTGWTQLSKLLELTGPKSLPAPWLSMAPVSWITPGLKTTAVCRGVLRGVTFLLRREGDHEFLEVPEAQEDVEATFPVHQPGNYSCSYRTDGEGALSEPSATVTIEELAAPPPPVLMHHGESSQVLHPGNKVTLTCVAPLSGVDFQLRRGEKELLVPRSSTSPDRIFFHLNAVALGDGGHYTCRYRLHDNQNGWSGDSAPVELILSDETLPAPEFSPEPESGRALRLRCLAPLEGARFALVREDRGGRRVHRFQSPAGTEALFELHNISVADSANYSCVYVDLKPPFGGSAPSERLELHVDGPPPRPQLRATWSGAVLAGRDAVLRCEGPIPDVTFELLREGETKAVKTVRTPGAAANLELIFVGPQHAGNYRCRYRSWVPHTFESELSDPVELLVAES” was tested, and the “percentage of EdU-negative” value [1, 9] was 24.5 ± 4.7%, the “percentage of EdU-negative” value [1, 10] was 27.1 ± 2.2% and the “percentage of EdU-negative” value [2, 9] was 5.27 ± 0.37%. For the same sequence, the “percentage of EdU-negative” value [2, 10] was 10.2 ± 0.85%.
For “MGAASGRRGPGLLLPLPLLLLLPPQPALALDPGLQPGNFSADEAGAQLFAQSYNSSAEQVLFQSVAASWAHDTNITAENARRQEEAALLSQEFAEAWGQKAKELYEPIWQNFTDPQLRRIIGAVRTLGSANLPLAKRQQYNALLSNMSRIYSTAKVCLPNKTATCWSLDPDLTNILASSRSYAMLLFAWEGWHNAAGIPLKPLYEDFTALSNEAYKQDGFTDTGAYWRSWYNSPTFEDDLEHLYQQLEPLYLNLHAFVRRALHRRYGDRYINLRGPIPAHLLGDMWAQSWENIYDMVVPFPDKPNLDVTSTMLQQGWNATHMFRVAEEFFTSLELSPMPPEFWEGSMLEKPADGREVVCHASAWDFYNRKDFRIKQCTRVTMDQLSTVHHEMGHIQYYLQYKDLPVSLRRGANPGFHEAIGDVLALSVSTPEHLHKIGLLDRVTNDTESDINYLLKMALEKIAFLPFGYLVDQWRWGVFSGRTPPSRYNFDWWYLRTKYQGICPPVTRNETHFDAGAKFHVPNVTPYIRYFVSFVLQFQFHEALCKEAGYEGPLHQCDIYRSTKAGAKLRKVLQAGSSRPWQEVLKDMVGLDALDAQPLLKYFQPVTQWLQEQNQQNGEVLGWPEYQWHPPLPDNYPEGIDLVTDEAEASKFVEEYDRTSQVVWNEYAEANWNYNTNITTETSKILLQKNMQIANHTLKYGTQARKFDVNQLQNTTIKRIIKKVQDLERAALPAQELEEYNKILLDMETTYSVATVCHPNGSCLQLEPDLTNVMATSRKYEDLLWAWEGWRDKAGRAILQFYPKYVELINQAARLNGYVDAGDSWRSMYETPSLEQDLERLFQELQPLYLNLHAYVRRALHRHYGAQHINLEGPIPAHLLGNMWAQTWSNIYDLVVPFPSAPSMDTTEAMLKQGWTPRRMFKEADDFFTSLGLLPVPPEFWNKSMLEKPTDGREVVCHASAWDFYNGKDFRIKQCTTVNLEDLVVAHHEMGHIQYFMQYKDLPVALREGANPGFHEAIGDVLALSVSTPKHLHSLNLLSSEGGSDEHDINFLMKMALDKIAFIPFSYLVDQWRWRVFDGSITKENYNQEWWSLRLKYQGLCPPVPRTQGDFDPGAKFHIPSSVPYIRYFVSFIIQFQFHEALCQAAGHTGPLHKCDIYQSKEAGQRLATAMKLGFSRPWPEAMQLITGQPNMSASAMLSYFKPLLDWLRTENELHGEKLGWPQYNWTPNSARSEGPLPDSGRVSFLGLDLDAQQARVGQWLLLFLGIALLVATLGLSQRLFSIRHRSLHRHSHGPQFGSEVELRHS”, the “percentage of EdU-negative” value [1, 11] was 27.2 ± 0.68%, the “percentage of EdU-negative” value [1, 12] was 28.2 ± 4.2% and the “percentage of EdU-negative” value [2, 11] was 4.7 ± 0.63%. The “percentage of EdU-negative” value [2, 12] was 5.68 ± 0.65%.
With “MAPSSPRPALPALLVLLGALFPGPGNAQTSVSPSKVILPRGGSVLVTCSTSCDQPKLLGIETPLPKKELLLPGNNRKVYELSNVQEDSQPMCYSNCPDGQSTAKTFLTVYWTPERVELAPLPSWQPVGKNLTLRCQVEGGAPRANLTVVLLRGEKELKREPAVGEPAEVTTTVLVRRDHHGANFSCRTELDLRPQGLELFENTSAPYQLQTFVLPATPPQLVSPRVLEVDTQGTVVCSLDGLFPVSEAQVHLALGDQRLNPTVTYGNDSFSAKASVSVTAEDEGTQRLTCAVILGNQSQETLQTVTIYSFPAPNVILTKPEVSEGTEVTVKCEAHPRAKVTLNGVPAQPLGPRAQLLLKATPEDNGRSFSCSATLEVAGQLIHKNQTRELRVLYGPRLDERDCPGNWTWPENSQQTPMCQAWGNPLPELKCLKDGTFPLPIGESVTVTRDLEGTYLCRARSTQGEVTRKVTVNVLSPRYEIVIITVVAAAVIMGTAGLSTYLYNRQRKIKKYRLQQAQKGTPMKPNTQATPP” the “percentage of EdU-negative” value [1, 13] was 24.7 ± 1.5%, the “percentage of EdU-negative” value [1, 14] was 24.2 ± 3.4% and the “percentage of EdU-negative” value [2, 13] was 5 ± 0.26%. The “percentage of EdU-negative” value [2, 14] was 5.68 ± 0.88%.

Source: the supplement of paper PMC11316812
